PMC3828344

System: vesicular stomatitis virus particle (Vesicular stomatitis virus)
Test: electrochemical aptasensor (SWV)

GCTAGCGAATTCCGTACGAAGGGCGAATTCCACATTGGGCTGCAGCCCGGGGGATCC [thiolated AG3 (aptasensor)]
binding signal (% of current decrease): 9.1
